A protein production outcome set (Wang et al. 2014)

Experiment: label from the status in PepcDB records

Row | Sequence | protein production
1 | MPPLRQTKTWVDRNGSAHVELSPTVPPQTPKRHMRIQSPMEISWSEAVREGGEHSARRCGDMAVSALAKPNPIIDDDPEGNPDVCMYTWIVECPGATAVLLWINGVFDHERIEESEMTRLEGSDLWILSLRMPSDWRASYTVNAWSGDGVAPWREAGDRMHIRKAAMSGGRPDSRAMGHIMDSSLVEGPDALPDCWVAASTSVKVVEETVAGEHFWFYEAPVKAPLLVLFDGQHWNNSMNLPAQVDAAIAIGLLPPVSLLMIDSVNTERRWDSVGVPGGQVDVLIDALLPHVRETYNVSARGEDTIVTGASFGGLASLWALALSDGEVGHAIAQSPSLWRFNVADALSAAEQWSSIHLQAGKYEGEMLRLSHQLAEDLSGDIREVRVRGVHGGHDWAWWRVHMLTELTRLLKTL | failed
2 | MTQANLSETLFKPRFKHPETSTLVRRFSHGAQPPVQSALDGKTIPHWYRMINRLMWIWRGIDPREILDVQARIVMSDAERTDDDLYDTVIGYRGGNWIYEWATQAMVWQQKACAEEDPQLSGRHWLHAATLYNIAAYPHLKGDDLAEQAQALSNRAYEEAAQRLPGTMRQMEFTVPGGAPITGFLHMPKGDGPFPTVLMCGGLDAMQTDYYSLYERYFAPRGIAMLTIDMPSVGFSSKWKLTQDSSLLHQHVLKALPNVPWVDHTRVAAFGFRFGANVAVRLAYLESPRLKVVACLGPVVHTLLSDFKCQQQVPEMYLDVLASRLGMHDASDEALRVELNRYSLKVQGLLGRRCPTPMLSGYWKNDPFSPEEDSRLITSSSADGKLLEIPFNPVYRNFDKGLQEITDWIEKRLC | failed
3 | EYQVLNLFICGIGTVGGSLVEQIRCQQQKLMMENGLKLHVVGIIDAAKAMFSREGFDLANFREELQKKGKDSNLQTIRDEIVGMNIFNSVFVDCTASPDIASLYKDLLQHNVSVVAANKIAASSAYENYRELKTIARQRGVKYLFETNVGAGLPIINTINDLIHSGDKILKIEAVLSGTLNYIFNK | failed
4 | MSRRDQLFSAMTASYVIAVTLAIVIAAIFAPVIWNGVPSGGDDDPSVAVITLRGGTTDANVNAVKQDLREARTNESIEAVVLRVDSPGGPVDSSEEFYLAVNRTASEMPVVAYVEGTAASGGYYGITPADEIVVKPSSNVGSIGVIVQAPLSLIEQVEQQGETFVRSGPDKAQISKDSLREDIEVLQRSFVGTVMRHRGEQLTVSREEVANGGTYLGAQATENGFADRIGDTGLAIERAAALSDDIEGDQYDVVYQGSGGAEFNVIIVPAGAETVQGANNVTYLVHPDNSETTFREPVKYYAVWGIPAEDNNATVIRND | failed
5 | MAHSGDNHSSEFCMLRSLSASIGADPLLVQGAGGNTSIKQAGVLWIKASGTWLKNARDDEIMVPVALAPLLDAVSHRSPAAEAAGQFTLADLNPRQLRPSIETTVHALLPQKIVVHVHCVETISIAVQANAEALLEGRLRGLDWAFVPYRRPGLPLAQAIAERLKPATNVLVLGNHGLVVAADTVAEAALLLQRVTGLLARQPRPAPPPDLDALLRLAAGSDYRLPASTAAHAVATDLASCRIAASGSLYPDHVIFLGVGSVIAGPGENAAAVVARTAAAPTSILFPGKGVLMRREANAGAEAMARCLADVVARVDGAARVNYLSPKENAELLNWDAEKYRQQLNREGATLQLEHHHHHH | failed
6 | TPSRVEAFDNSNIHGTDPVSAMVTFLDGKPSKNDYRKYKIKTVEGPDDYATMREVIRRRYWRVLKEGLPMPDLILIDGGKGQIDSAKDVLTNELGLDIPVAGLAKDDKHRTSQLLFGDPLEIVPLERNSQEFYLLQRMQDEVHRFAITFHRQLRSKTGFQSILDGIPG | failed
7 | MRYAAVLVEVGGTHRCLPLDSDGDLNIVASFDRRGKHIYTGNAKGKILVLDAETFEVVASFRIIVGTSSATAVKSIEFARRGDAFLINTSDRVIRVYDSKEIIILGKDGEPEPIQKLQDLVNKTTWKKCCFSGDGEYICAGSARQHALYIWEKSIGNLVKILHGTKGELHKQKRIRSFLERLAKDVPRIKNHLTLPNRFLFSSYRYYIRTI | failed
8 | MDSGCWLFGGEFEDSVFEERPERRSGPPASYCAKLCEPQWFYEETESSDDVEVLTLKKFKGDLAYRRQEYQKALQEYSSISEKLSSTNFAMKRDVQEGQARCLAHLGRHMEALEIAANLENKATNTDHLTTVLYLQLAICSSLQNLEKTIFCLQKLISLHPFNPWNWGKLAEAYLNLGPALSAALASSQKQHSFTSSDKTIKSFFPHSGKDCLLCFPETLPESSLFSVEANSSNSQKNEKALTNIQNCMAEKRETVLIETQLKACASFIRTRLLLQFTQPQQTSFALERNLRTQQEIEDKMKGFSFKEDTLLLIAEVMGEDIPEKIKDEVHPEVKCVGSVALTALVTVSSEEFEDKWFRKIKDHFCPFENQFHTEIQILA | failed
9 | MKRFARKETIYLRGEEARTLYRLEEGLVRVVELLPDGRLITLRHVLPGDYFGEEALEGKAYRYTAEAMTEAVVQGLEPRAMDHEALHRVARNLARQMRRVQAYEAHLQTGELRARIARYLLFLADTPLSARDRQGIYVTVSHEEIADATASIRESVSKVLADLRREGLIATAYRRVYLLDLAALEREAGSALEAA | not failed
10 | MSVNLGSLPRQRSLLSRLRDLWPLWLFLALLASALHYIVRYWPQIVLQSAIWQKSLHQQMSHLLQMVEQQPHQAGLSLMMFSLVYGVLHAVGPGHGKVVIMTYLATHPSKLKSSLKLTLAASLVQGLMAIALVTVVLGILQLSSRTLHNSSFWMEKGSFVLVAGLGLLLCFRALKQLYIVLVRQPKPATILRVIPLPVTPLNVAAHGRMTLSPIYAPSHSLHQHDVDCGCGHRHLPSNEELERGSSWHTRLMIVLAMGMRPCSGAIMVLLFSKVIGVYLWGVASALVMAAGTAITISALAVLVFYCRRVIERLGANRASPVWQRATFSLLSFAGGMILVGSGILLYLSAQPAMMGGIRPFSG | failed
11 | MQIGGRQHGDWTHYSVDSDLVVAADAWQVSLGLPGGVFPPDVEPGAMVKVQVGGETVLMGRIDDISHSVASGSHQLTLSGRDLAGMLLDCSAPLFTGKGMTLQDVLDNVVKPLGIANIRVDAKARGQIEKINVDPGNSAWDVLTRAAQANGLTAWFDPDGTLLVGGPDYSRPASARLILRRDGKGNNVLSLAETRSHAQRYSELTLLGQGHGQSLTPGRHAMRHHVFDSDVCYHKPRIQVEPDAASPAELAARADKMLADARLAGYTLTATVAGHRDSQGALWTPGQRIEVESEPHGINGTYFLMARTFEGGRGQGSVTRLTLKEDKCWIPVMRAGKQ | failed
12 | MSAELTRARQQLSQIRGYLRQGKVMPAAQAFQSALVIVLKSPLMRAEREEFERMFADAAHHLNNDAGLRALFPLKIEYLPGSEKELLDIIRELVTAVNNAAVTEAQEQLAALDARKAAGLEQGQAHLDAQEFDAAAAVFRQLSHEFKDDPQLRGEIGERFLKAGRYEEAFDYLAQALDLSPESIHLYNRIGIALRRLGRFETGEKYYLRALQYAGHDPNLLFNLGRLYVDWQRWDKVAKAAAAALRVNPAFDEARKMLEFAERKLQR | failed
13 | MTPVQIAAVVVTYESSSTIDACLSRLRAAEGISEIRVVDNASSDDTLEVVQRHALADARLHFIANPDNPGFATACNQGARDSQAPWLVFINPDLMIARDTLLQLYHRAAGHPAVLLGVEQVDEQGRPDAAVRRRDPDFAAMLRAPRAAANLAVPADPSRALQPVDAISGALMLMQRSLFDRLDGWDGSYRLHAEDLDLCRRARQAGALVAVANDLHVLHVRGVSSRARPFFVEWHKHRGLWRYFRKFEADRRGLLTRLGVWLAIWSHAAAQVPRLLQNKLEHHHHHH | failed
14 | MKDCCGGYESEELLMDFSGKDKAAYVQDTFNSIAKRYDVMNTLMSFGLDKGWRKKAVQTVEAKPGMTMVDICCGTAQLSLELAMTVGEQGQITGLDFSENMLKKAQENLAGSPYRSIIELRQGDAMNLPFADNSFDGATVGWGLRNLPDLEKGVQEMIRVVKPGGMVVSLDMAKPTMPGFKQGYWLYFNKLVPLMGKIWAGKAKAYQYLHDSAVEFPSQQELANIFARCGLTETRYQNLAGGVVAIVSGRKPR | failed
15 | MLKKLLLVSTVLLLSACSSRQYSESSLTQSKIDIYEQTQNYVALSDLYKAELKKEDSEEIREALAAALLHLEDPESALFYLKPNIENGASFQSYYLQASALGDLGKYPQAIKAALLSLEENPDNPETENLLGILYGHEYQYEKSRRYFQKAQLHFYDSNTIANNLAVLDIAEGNYKRAAQRLLPVYRSGQANEQVMANLILSMAKEQNLEFIQAVLGDKHTKKEIERIYQSLQRFNSLDIDTKKSV | failed
16 | MHRLRAAETGDIEAMTDLLLRHGPNPWNHLPEEGVRAHLRAIADGEVRAVLAERDDRLLGFASFRRTEDFAHYQPQRADAPRAYICEAVVHPAAAGQGLGSALLEAVLAQLADEGIEDVYIDRHEENLASAGMMRKAGFVELETYADPARRPNGSGRSTVCHRNLSLQRRAVR | failed
17 | MTIIKYIKFVVIIVIVTIVFSCSKNEAGNSEYDPSLPISLTDFFPIQGGMATRMVIEGANFGTDLSQIKVFFNQKEASILNVKNSIIYLLVPKLPGNDCIVTVKVGNQEARFTRNFQYIENYSVTTIAGQPGTNLFVEGTLAAAQFGPVQHLAIDDENNLFITERNGSDGKGTCSVLNEESGTVTFLFKASDNLNVPTVNAQTQNVYIPLDGGYTFYELNPVNQWIAKSRLVLHPSKEQQEAGMDDFEINWKHSLAFSRYDNMIYTRSYGGDLIKVDPETRVGQKIGNFFPNTDSFIVAHPTQPEILYIAYAAKHVIYTYNIETGEHKLFAGAFGQSGWNDGIATDAEFNSPRQMSLDMEGNIYIADSGNHCIRMIDKNGIVTTPIGQPGEAGYADGSPDMALLNDPRGVAVNSEGDVYIADLGNRCIRKLTLQ | failed
18 | MLTYQVKQGDTLNSIAADFRISTAALLQANPSLQAGLTAGQSIVIPGLPDPYTIPYHIAVSIGAKTLTLSLNNRVMKTYPIAVGKILTQTPTGEFYIINRQRNPGGPFGAYWLSLSKQHYGIHGTNNPASIGKAVSKGCIRMHNKDVIELASIVPNGTRVTINR | not failed
19 | MDQKEAPSFTEASVHDPSVIKVEDTFYVFGSHLAAAKTEDLRNWTQIATHVHEGNPLIPNVFVELAEAFEWANSNTLWAADVIQLEDGRFYMYYNACQGDAPRSALGVAVADDIEGPYENLGVFLKSGMWGEESPDGTIYDANVHPNAIDPHVFFDEEGKLWMVYGSYSGGIFILEMDPDTGFPLPGQGYGTHLMGGNHSRIEAPYIHYDKETEYYYLYVTFGGLDSTGGYNMRVARSKQPDGPYVDGEGHLMSEVRGAPGTLFDDASIEPYGVKQMGNFLFKRELGERGTGYVSPGHNSVYYDDEVDKIFLFFHTRFPERGEAHEIRVHQMFMNRKGWPVIAPYRYTGESLEKVKAKEVIGDYQWINHGKEISAEIKESVTVRLEKNHKVLGDVTGKWKKVGDYHVELQIDGETYYGVFLRQWDPVAEREVMTFTALSEEGIAIWGSQLEEKTDNEIVDAVYDDLTLEGTIISDVELPTRGMRQTTIAWSSSHEEVLSSSGKVNRPEIGEDDVVVSLTATISKGSAERIKTFELVVPGQTEGGLVAHYPLNGTLENAVDDARFGSGTVTGNRIDNPGGTIAFEQGIDGEAAVFDGTTGIRLPNGLISRNTYTVSFWLNPEQLTEFTTAFFAARSEHHWLSFVPRGHSGMNHDTMLWAGSAQWYDAGTGVKLPVGEWSHVAFSVDNGEIVIYLNGEERFRGENFPNLFTTPNAYFALGVNHWDAPFQGMIDELRIYDGVALTREEIVHLAKQKLEHHHHHH | not failed
20 | SVNAATVDLRIMETTDLHSNMMDFDYYKDAATEKFGLVRTASLIEQARAEVKNSVLVDNGDVIQGSPLGDYMAAKGLKEGDVHPVYKAMNTLNYAVGNLGNHEFNYGLDFLHKALAGAKFPYVNANIIDAKTGKPMFTPYLIQDTRVVDSDGQIHTLRIGYIGFVPPQIMTWDKANLNGKVTVNDITETARKYIPEMRAKGADVVVVVAHSGLSADPYQAMAENSVYYLSQVPGVDAIMFGHAHAVFPGKDFANIKGADIAKGTLNGVPAVMPGMWGDHLGVVDLVLNNDSGKWQVTQSKAEARPIYDAVAKKSLAAEDGKLVSVLKADHDATREFVSK | not failed
